Key:
Experiment in all cases: BLI
[1] = biological target: HC84.26.5D Fab VH G50R (human)
[2] = biological target: biotinylated SARS-CoV-2 fusion peptide
[3] = biological target: SARS-CoV-2 spike
[4] = biological target: HCV E2 envelope glycoprotein
[5] = biological target: His-tagged HIV Env MPER peptide

Work on “HCV (isolate H77) E2 domain (domain or fragment)” yielded a fold change in KD against the wild type [1] of 6 fold.
COV44–62 Fab (WT) VH:R50W gave a ratio to parent [2] greater than 100.
COVOX-316 VH:W50R was tested, and the ratio to parent [3] was greater than 100.
Substance HCV1 VH:W52S has a ratio to parent [4] greater than 100.
Work on P008_60 VH:S52R yielded a ratio to parent [3] greater than 100.
Substance 4E10 Fab (WT) VH:G50R has a ratio to parent [5] greater than 100.
With HC33.8 VH:S52Y the ratio to parent [4] was greater than 100.

— doi:10.1101/2023.06.06.543969
